The target of assay [1] is T1, Fcγ-receptor I (mice, UniProt P26151 25-404).
T1 construct: whole, on cells; HeLa cells transfected with an FcγRI plasmid, RFP-tagged; also called FcγRI; not shown: red fluorescent protein tag (RFP) attached to the intracellular portion
T1 sequence (looked up): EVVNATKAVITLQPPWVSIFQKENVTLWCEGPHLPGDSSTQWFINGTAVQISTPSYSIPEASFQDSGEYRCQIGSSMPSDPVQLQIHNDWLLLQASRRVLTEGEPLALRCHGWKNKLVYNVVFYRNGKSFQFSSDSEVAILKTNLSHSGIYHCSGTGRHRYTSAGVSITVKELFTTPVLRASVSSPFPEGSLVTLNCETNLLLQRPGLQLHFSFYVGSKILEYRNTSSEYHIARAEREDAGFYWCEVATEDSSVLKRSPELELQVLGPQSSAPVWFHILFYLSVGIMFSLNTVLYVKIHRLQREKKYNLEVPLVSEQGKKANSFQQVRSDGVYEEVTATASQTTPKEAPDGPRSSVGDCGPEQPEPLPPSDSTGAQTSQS
In words: flow cytometry saturation binding on HeLa cells expressing FcγRI; reference rabbit IgG. An excerpt: (§1) There are four Fc-gamma receptors (FcγRs) in mice including: Fcγ-receptor I, Fcγ-receptor III, Fcγ-receptor IV, and Fcγ-receptor IIb. The genes for each of the Fcγ-receptor I, Fcγ-receptor III, Fcγ-receptor IV, and Fcγ-receptor IIb were cloned into four separate plasmids. […] A red fluorescent protein tag (RFP) is attached to the intracellular portion of the FcγR (FIG. 56A). Thus, binding to the FcγR of a transfected HeLa cell will result in a signal transduction that causes the cells to fluoresce red, which may be measured by flow cytometry.
(§2) Polypeptides comprising a first and second Fc fragment of rabbit IgG in dimeric form and whole rabbit IgG were quantified by ELISA, using the whole rabbit IgG as the standards. HeLa cells that express FcγRI, HeLa cells that express FcγRIIb, HeLa cells that express FcγRIII, and HeLa cells that express FcγRIV as described in Example 13 were stained with 2-fold series diluted either with polypeptides comprising a first and second Fc fragment of rabbit IgG in dimeric form or whole rabbit IgG. The cells were then stained with Zenon Alexa Fluor 488 rabbit IgG labeling kits. […] The HeLa cells that express FcγRI, HeLa cells that express FcγRIIb, HeLa cells that express FcγRIII, and HeLa cells that express FcγRIV were gated by red fluorescence (RFP); and the mean fluorescence of Alexa Fluor was measured for the Saturation Binding Curves (FIGS. 61A-D).

Assay [2] deals with T2, Fcγ-receptor IV (mice).
T2 construct: whole, on cells; HeLa cells transfected with an FcγRIV plasmid, RFP-tagged; also called FcγRIV
T2 sequence (A0A0B4J1G0 whole entry, looked up): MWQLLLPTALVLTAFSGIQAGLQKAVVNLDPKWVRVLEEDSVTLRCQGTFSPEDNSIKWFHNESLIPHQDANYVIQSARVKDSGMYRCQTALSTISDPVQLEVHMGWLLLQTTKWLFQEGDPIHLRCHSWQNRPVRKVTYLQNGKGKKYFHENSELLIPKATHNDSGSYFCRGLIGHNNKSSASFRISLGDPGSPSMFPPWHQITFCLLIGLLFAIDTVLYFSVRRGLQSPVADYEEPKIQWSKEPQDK
In words: flow cytometry saturation binding on HeLa cells expressing FcγRIV; reference rabbit IgG.
Description: as §1, §2
(Flow cytometry measures light scatter and fluorescence of single cells or particles in a stream.)

For assay [3], the target named is T3, Fcγ-receptor III (mice, UniProt P08508 31-261).
T3 construct: whole, on cells; HeLa cells transfected with an FcγRIII plasmid, RFP-tagged; also called FcγRIII; not shown: red fluorescent protein tag (RFP) attached to the intracellular portion
T3 sequence (looked up): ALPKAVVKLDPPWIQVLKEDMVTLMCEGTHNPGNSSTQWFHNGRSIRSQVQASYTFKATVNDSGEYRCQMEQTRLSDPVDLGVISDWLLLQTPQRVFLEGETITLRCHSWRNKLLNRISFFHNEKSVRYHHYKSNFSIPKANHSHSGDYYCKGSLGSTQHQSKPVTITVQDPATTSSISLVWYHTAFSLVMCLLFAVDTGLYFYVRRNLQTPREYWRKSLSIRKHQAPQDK
In words: flow cytometry saturation binding on HeLa cells expressing FcγRIII; reference rabbit IgG.
Description: as §1, §2

For assay [4], the target named is T4, Fcγ-receptor IIb (mice, UniProt P08101 30-330).
T4 construct: whole, on cells; HeLa cells transfected with an FcγRIIb plasmid, RFP-tagged; also called FcγRIIb; not shown: red fluorescent protein tag (RFP) attached to the intracellular portion
T4 sequence (looked up): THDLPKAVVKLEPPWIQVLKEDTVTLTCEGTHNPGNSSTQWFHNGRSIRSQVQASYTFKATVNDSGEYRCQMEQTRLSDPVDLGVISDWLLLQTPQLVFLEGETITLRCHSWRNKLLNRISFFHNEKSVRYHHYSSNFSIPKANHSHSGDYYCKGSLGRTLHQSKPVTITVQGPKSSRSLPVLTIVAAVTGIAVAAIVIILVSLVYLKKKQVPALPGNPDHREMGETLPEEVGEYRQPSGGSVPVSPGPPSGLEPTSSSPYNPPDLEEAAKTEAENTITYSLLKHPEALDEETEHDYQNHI
In words: flow cytometry saturation binding on HeLa cells expressing FcγRIIb; reference rabbit IgG.
Description: as §1, §2

Assay [5] deals with T1, Fcγ-receptor I. In words: flow cytometry saturation binding on HeLa cells expressing RFP-tagged FcγRI (FIG. 61A, left panel).
Description: as §1, §2

In assay [6] the target is T2, Fcγ-receptor IV. In words: flow cytometry saturation binding on HeLa cells expressing RFP-tagged FcγRIV (FIG. 61D, left panel).
Description: as §1, §2

Assay [7] concerns the target T3, Fcγ-receptor III. The assay is described as follows: flow cytometry saturation binding on HeLa cells expressing RFP-tagged FcγRIII (FIG. 61C, left panel).
Description: as §1, §2

Assay [8] has as its target T4, Fcγ-receptor IIb. In words: flow cytometry saturation binding on HeLa cells expressing RFP-tagged FcγRIIb (FIG. 61B, left panel).
Description: as §1, §2

What is called Kd is the free concentration of one partner at which half of the binding sites on the other are occupied at equilibrium, for simple one-to-one binding. A high value points to lower affinity.

B1: polypeptide comprising a first and second Fc fragment of rabbit IgG in dimeric form (Fc fusion)
chain: GGSHHHHHHGMASMTGGQQMGRDLYDDDDKAPSTCSKPTCPPPELLGGPSVFIFPPKPKDTLMISRTPEVTCVVVDVSQDDPEVQFTWYINNEQVRTARPPLREQQFNSTIRVVSTLPIAHQDWLRGKEFKCKVHNKALPAPIEKTISKARGQPLEPKVYTMGPPREELSSRSVSLTCMINGFYPSDISVEWEKNGKAEDNYKTTPAVLDSDGSYFLYSKLSVPTSEWQRGDVFTCSVMHEALHNHYTQKSISRSPGKDIVRSSKPTCPPPELLGGPSVFIFPPKPKDTLMISRTPEVTCVVVDVSQDDPEVQFTWYINNEQVRTARPPLREQQFNSTIRVVSTLPIAHQDWLRGKEFKCKVHNKALPAPIEKTISKARGQPLEPKVYTMGPPREELSSRSVSLTCMINGFYPSDISVEWEKNGKAEDNYKTTPAVLDSDGSYFLYSKLSVPTSEWQRGDVFTCSVMHEALHNHYTQKSISRSPGK
notes: The supernatants hold monomeric and dimeric forms; also called dimeric polypeptides; polypeptides in dimeric form
For the molecule B1, the “fold enhancement of binding against rabbit IgG” value with Fcγ-receptor I [1] was at least 57.5 fold; with Fcγ-receptor IV [2] it was at least 191 fold; with Fcγ-receptor III [3], at least 223 fold; with Fcγ-receptor IIb [4] it was at least 61.7 fold. Also, the Kd is at most 3.5 nM with Fcγ-receptor I [5], at most 6.3 nM with Fcγ-receptor IV [6], at most 10.4 nM with Fcγ-receptor III [7] and at most 9.8 nM with Fcγ-receptor IIb [8].

The values above are taken from US20140294817A1 (LEUKOSIGHT, published 2014).
